Data taken from US20190374567A1, “Reverse Transcriptase Dependent Conversion of RNA Templates Into DNA” (priority 2016, published 2019).

Columns and labels:
Superscript III = test: RT-PCR of 2.2 kb eGFP transcript with Superscript III; type: biochemical; conditions: 1.5 μg RNA
Description: (§1) Samples were DNase treated using the Qiagen RNase-Free DNase Set (Qiagen Catalog #79254) followed by purification using the Qiagen RNeasy Mini Kit (Qiagen Catalog #74104) and manufacturer's instructions. To eliminate potential gDNA contamination, each RNA sample was DNase treated four times.
(§2) cDNA was generated using Invitrogen's SuperScript III First-Strand Synthesis System for RT-PCR (Invitrogen Catalog #18080-051) or a recombinant HIV Reverse Transcriptase (HIV RT, Worthington Biochemical Corporation Catalog #LS05003). All reactions received 2 μl 10 RT reaction buffer, 4 μl 25 mM MgCl2, 2 μl 0.1 M DTT, 1 μl 10 mM dNTPs, and 2 μM primer (8 μM when Phosphorothioate Primer used). For reactions using Superscript III, 200 U enzyme was used. Reactions using HIV RT contained 10 U enzyme. Different concentrations of RNA template were used, ranging from 1.5 to 5 μg/reaction. Table 21. No-RT and no-template controls were set up during reverse transcription. Reactions using Superscript III enzyme were incubated at 65° C. for 5 minutes, 50° C. for 60 minutes, and 85° C. for 5 minutes. Reactions using HIV RT were incubated at 65° C. for 5 minutes, 37° C. for 60 minutes, and 85° C. for 5 minutes. HIV RT was tested in the presence and absence of beta-thujaplicinol.
(§3) PCR Analysis: PCR was performed using primers PCR-F2 and PCR-R2. PCR products were resolved using a 1% agarose gel and purified using the QIAquick Gel Extraction Kit (Qiagen Catalog #28704). […]

[1] = biological target: T1, HIV Reverse Transcriptase (Human immunodeficiency virus type 1 group M subtype B, UniProt P04585); test: RT-PCR of 2.2 kb eGFP transcript with HIV RT, with or without beta-thujaplicinol; type: biochemical
T1 construct: a recombinant HIV Reverse Transcriptase; purchased Worthington Biochemical Corporation LS05003
Description: as §1, §2, §3

[2] = Sequence analysis of RT-PCR product against reference sequence; conditions: SV40 DNA primer and HIV RT used in cDNA generation
Description: Sequence Analysis: Sequencing was performed using BigDye Terminator Cycle Sequencing. Data analysis was performed by GENEWIZ with DNASTAR Lasergene software. FIG. 34 (SEQ ID NO.: 23) depicts the WT eGFP Consensus sequence (2,225 bp); SV40 DNA primer and HIV RT used in cDNA generation. FIG. 35 (SEQ ID NO.: 24) depicts the Alpha-Thio-Uridine eGFP Consensus (2,225 bp); SV40 RNA primer and Superscript used in cDNA generation.

[3] = mRNA quality check before and after DNase treatment (agarose gel, OD 260/280); type: physicochemical
Description: The experimental procedure and assay readout for the analysis and removal of the mRNA contamination by plasmidic DNA was as follows: 1) the 4 mRNAs solutions were thawed, aliquoted and stored at −80° C., 2) aliquots of the mRNAs solutions were treated with the DNase as recommended by the manufacturer (Qiagen, cat #79254): four rounds of DNase were successively performed, 3) following the DNase digestion, the mRNAs were purified on columns as recommended by the manufacturer (Qiagen, RNeasy Elute), 4) the eluates were quantified and controlled on an Agarose gel, 5) a PCR amplification reaction was performed to evaluate the DNA contamination of the mRNA solutions before and after the DNase treatment.
Timeline of mRNAs solutions control and DNA digestion. mRNA solutions are thawed and digested with DNase. The solutions are purified on a column. The mRNA is quantified and quality control on an agarose gel is performed after purification. A PCR reaction of the mRNA aliquots is performed on aliquots from before and after purification.

B1: EGFP-WT: 2.2 kb wild type eGFP transcript (RNA template synthesized with plasmid pAFTAB) (nucleic acid)
DNA: TTGGCCACTCCCTCTCTGCGCGCTCGCTCGCTCACTGAGGCCGCCCGGGCAAAGCCCGGGCGTCGGGCGACCTTTGGTCGCCCGGCCTCAGTGAGCGAGCGAGCGCGCAGAGAGGGAGTGGCCAA
modifications: chemistry not fully specified; the letters are possibly those of the target site
2.2 kb fragment of interest in PCR from RT reaction (Superscript III; PBS RNA primer): present | 2.2 kb fragment of interest in PCR from RT reaction (Superscript III; PCR-R2 primer): present | 2.2 kb fragment of interest in PCR from RT reaction (Superscript III; SV40 DNA primer): present | 2.2 kb fragment of interest in PCR from RT reaction ([1]; SV40 DNA primer, 1.5 μg RNA, β-Thujaplicinol 0 μM): present | 2.2 kb fragment of interest in PCR from RT reaction ([1]; SV40 DNA primer, 2 μg RNA, β-Thujaplicinol 0 μM): present | 2.2 kb fragment of interest in PCR from RT reaction ([1]; SV40 DNA primer, 2 μg RNA, β-Thujaplicinol 1 μM): present | 2.2 kb fragment of interest in PCR from RT reaction ([1]; SV40 DNA primer, 5 μg RNA, β-Thujaplicinol 0.2 μM): present | 2.2 kb fragment of interest in PCR from RT reaction ([1]; SV40 RNA primer, 1.5 μg RNA, β-Thujaplicinol 0 μM): present | 2.2 kb fragment of interest in PCR from RT reaction ([1]; SV40 RNA primer, 1.5 μg RNA, β-Thujaplicinol 0.2 μM): present | 2.2 kb fragment of interest in PCR from RT reaction ([1]; SV40 RNA primer, 2 μg RNA, β-Thujaplicinol 1 μM): present | consensus sequence match to the reference sequence [2]: 100% | OD 260/280 Post-treatment ([3]; mRNA solution after DNase treatment and column purification): 2.05 | OD 260/280 Pre-treatment ([3]; mRNA solution before DNase treatment and column purification): 2.07
